Data on four molecules can be found in paper PMC5407770, “Pyridoxal phosphate synthases PdxS/PdxT are required for Actinobacillus pleuropneumoniae viability, stress tolerance and virulence” (PLoS ONE, 2017).

Data set [1] concerns the target T1, PdxS (Actinobacillus pleuropneumoniae, UniProt B3GXB6).
T1 construct: full-length ORF (888 bp), pET22b(+) NdeI/XhoI, His6-tag kept, E. coli BL21(DE3); PdxS alone, without PdxT
As to the kind of experiment: PLP formation assay, OD414. Format: biochemical. The note with it: 50 mM Tris-HCl pH 8.0, 37°C, PdxS alone, 10 mM ammonium sulfate in place of glutamine.

Data set [2] relates to O=CC(O)COP(=O)(O)O. Briefly: purified protein. The note with it: 50 mM Tris-HCl pH 8.0, 37°C, PdxS + PdxT mixture, co-substrates ribose 5-phosphate and glutamine, glyceraldehyde 3-phosphate 0–1.0 mM (DL form per methods).
Data set [3] concerns NC(=O)CC[C@H](N)C(=O)O. Briefly: purified protein. The note with it: 50 mM Tris-Cl pH 8.0, 37°C, PdxS + PdxT mixture, glutamine 0–15 mM.

T1 sequence (B3GXB6 whole entry): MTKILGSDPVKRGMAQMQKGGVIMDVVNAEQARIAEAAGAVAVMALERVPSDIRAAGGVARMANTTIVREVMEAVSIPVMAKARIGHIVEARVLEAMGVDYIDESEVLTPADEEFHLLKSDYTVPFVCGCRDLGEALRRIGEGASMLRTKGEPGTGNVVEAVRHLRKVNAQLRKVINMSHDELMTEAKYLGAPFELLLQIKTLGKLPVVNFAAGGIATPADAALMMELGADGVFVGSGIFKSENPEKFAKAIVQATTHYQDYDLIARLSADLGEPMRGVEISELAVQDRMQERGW

`O=CC(O)COP(=O)(O)O` (racemic) [glyceraldehyde 3-phosphate]: the “PLP formation assay, OD414” value in data set [1] (0.5 mM ribose 5-phosphate) was “the individual PdxS could produce PLP in the addition of ammonium”.
As for `O=P(O)(O)OC[C@H]1OC(O)[C@H](O)[C@@H]1O` (stereo partly drawn) [ribose 5-phosphate], the “PLP formation assay, OD414” value in data set [1] (1 mM DL-glyceraldehyde 3-phosphate) is listed as “the individual PdxS could produce PLP in the addition of ammonium”.
What is called Km is the concentration of substrate that gives half-maximal velocity. What is called kcat is the number of substrate molecules converted per active site and unit of time at saturation. For the molecule “PLP synthase PdxS and PdxT (PLP synthesis activity) (Actinobacillus pleuropneumoniae serovar 7 str. AP76)”, in data set [2], the Km worked out at 175.7 ± 23.0 µM and the kcat amounted to 0.000383 ± 1.83e-05 s⁻¹.
With “PdxS and PdxT (PLP synthase; glutaminase activity of PdxT with PdxS) (Actinobacillus pleuropneumoniae serovar 7 str. AP76)”, in data set [3], the Km came out at 1720 ± 140 µM and the kcat turned out to be 0.102 ± 0.00233 s⁻¹.
